Measurements: the supplement of paper PMC12042874
± gives the uncertainty stated by the source.

Test: amyloid nucleation score (Sup35N fusion, yeast selection) (log enrichment); library NNK3; higher = more nucleation; inactive = no reads after selection
In short: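 Plasmid inserts were Illumina-sequenced at input and output from psi-negative yeast expressing Sup35N fused to peptides of 20 random codons. The yeast were induced with 100 μM copper sulfate for 24 hours and grown 7 days at 30°C on medium lacking adenine and uracil, and sequences with under 100 input reads were excluded. Nucleation score is the DiMSum log enrichment of output over input reads, centred on the mode score of non-aggregating sequences.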

Substance	amyloid nucleation score
ANVHNTENLRGLILCRRLLH	inactive
VAGSLVAKP	inactive
YALIQIPKYRLGCRGWTMRG	0.172 ± 0.27
VRRCNTCLQ	inactive
RSWLLSSEFVVVIFSNTEGM	1.24 ± 0.16
GIANRAFITDGGWGLFISTY	inactive
RDPSQNTSKHLSNVAFISLY	inactive
VTLQLPDCFGRACIGLAYIA	inactive
TIVRY	1.1 ± 0.21
LEGSKKSDSSLARSWYFFET	inactive
SSDILASFGCYSNFHLSHII	inactive
KSRKFYKTSLCLMNTYLMNM	inactive
GPHNFGEMSGFVDGTRRSGV	inactive
GWSFAWCTRVRVMGKVAVWW	inactive
CVCPKANVEYPMACFRHIIV	inactive
FTFLMDRY	-0.083 ± 0.34
LELGTLTNRSLCFCEILPFC	inactive
SHYSSWVSRDRWSNTEFGMV	inactive
YGRLCDALKGSWYCSIYHGS	1.79 ± 0.074
IFIIIGRRFIILKSLVRLHF	inactive
GWGIICFAKY	inactive
DGGCSKIVRQTLWLNPLGNS	inactive
VNGNVDKFQKSKSLGTFVTT	inactive
WYRYSGGYNWP	0.396 ± 0.29

Substance	amyloid nucleation score
NHLGM	inactive
MAWGLVNMRMSLSAKYQGAL	inactive
YMIDPYKEEVLPP	inactive
NDFIVECMTVESS	inactive
LCLFRTRVIGVS	inactive
ETECVFSDYHSKVNICGGSL	inactive
FMYDYLAHLPGDFVNNSCRR	inactive
WELMCKALGRGRRCWYKCFL	inactive
STIAGPFLKFARSGTCPPVP	-0.776 ± 1.8
NVDHRTKSWLINWFTSLELL	inactive
STLQRDIICKCIHAKVTVWV	inactive
GCSRHYKFS	inactive
PMMGSLYFVP	inactive
RRSRCVRSVYRFRMSRARPP	inactive
KQTFKYTGVDHTVT	inactive
RVRYGGNKMHNSRKLACGQG	0.743 ± 0.18
SLLKINGGVIHYFSCRMEDW	0.684 ± 0.34
YLYLWSFCMSMVGFSIYRES	inactive
YGLFGCLTSVWACRGCYGVV	inactive
AFLFTLL	inactive
FLFYLFFFSGRMDR	0.179 ± 0.33
MNVFVAQSLRRVHCAHELN	0.233 ± 0.81
ILFEFTTPNLSYIFCFFTIH	inactive
NILMAGDMHSRA	inactive

Substance	amyloid nucleation score
FCMRMDRLQLRIADSLLRFF	inactive
PVTDLWLTFS	inactive
YSGKYVCAVGF	inactive
WFSSKRDLR	inactive
DLVMDFQ	inactive
EDIEMEMLLLGCNLEVLNAK	inactive
ICISKRYWHDIAFCIGYSNE	1.29 ± 0.12
NNSASNPILFGRYVTASREY	inactive
LVGTRRLSSYRHRFKWITIG	inactive
LRVYLLAWL	0.781 ± 0.16
IGVTPDHRSMLGRNLCLC	inactive
YAFKVCS	inactive
ILKVLFKF	1.13 ± 0.1
CVHYRFMLSRLYMILVPLTY	inactive
QHMFQAWFTVNKFSRGECGF	inactive
FLRLKFRAYDP	1.01 ± 0.11
RCHISERD	inactive
GSRIGGVL	inactive
MSVIIAIAMYRLFRDRTHPL	inactive
SERQTSLRHLGLRHLFK	1.22 ± 0.16
TQDIKLFHRMDFQLSIKMNS	inactive
WVNTGNQRLYRQTCCGTLVR	inactive
NQEQWWLATAYPNVSWSIKL	inactive
DACTVVCVCIQSIRGSQVSC	1.09 ± 0.15

Substance	amyloid nucleation score
ENALARMLAEEI	inactive
QCMIYYTDKLLKYSSCTRTM	inactive
SMQVQMTWLCDRSSLGQRNQ	1.6 ± 0.11
RNGRKYSIWLVGVSH	inactive
AVIWGEAPRIFLTCGALRRE	inactive
IWQFRGSPSVYSARREWIDT	inactive
WSVSTQFPCFMSGSIGYNMS	inactive
SITQSRLTP	-0.196 ± 0.36
GGKVSERRYVDLCRLPSVAP	inactive
RVRLIH	inactive
RSSPEDPLTSFLGYTGMTAS	inactive
NEQVGDGLFCP	-0.057 ± 0.75
CCVSVKYWYYV	2.18 ± 0.058
DWRMAYVSVC	inactive
YLRDF	inactive
LYSSLCRGWLCRISISTRAP	inactive
EHVRVYFVLDYFDFCQAPAG	inactive
MVVQRNDYIVSVFSTLFPRS	1.6 ± 0.096
VIRRYCAGARHYSVLEIMRE	inactive
KIYANHLL	inactive
GSVGTNCSGFVAPELRSPRC	inactive
KFCLWYSGTNELDLCEPSMT	inactive
TDRLGCSFELCAPTCKCAGV	inactive
FYYTKDPRIGKNNYLCV	inactive

Substance	amyloid nucleation score
RWAKSEAVLLVFGEFSLVGW	inactive
YINLVFQNCAVDGRSSKGYW	2.67 ± 0.081
FNFTVSRVPISVMVLQKRRK	1.18 ± 0.086
NLAFAVYARTRLKLSPASCV	inactive
QIALSYSCIITRCVCNLCQR	3.12 ± 0.056
SNRYVCLAYYFSE	0.154 ± 0.49
VHVSEGPRWRFHSRRDSSVV	inactive
VSNYTSRNNYVNCQLELTRA	inactive
GAKIPELSLLMVTPINARSF	inactive
LKYSSDQYLCRTFLGISGFG	inactive
VGKFSHACLRIN	inactive
IDQDFMTVIRQS	inactive
KGCVRSGQIWLRCIWSQYP	inactive
FLRWFWRD	0.785 ± 0.18
NRQVNCSFEGFSNRSKVYAY	inactive
YTKATHSVMFGFTVIVVF	inactive
IGKRSVRVIDPVFYKPFANM	inactive
SQKFGALVFI	inactive
PTATRGPMTLRSHASHHRTL	inactive
SCSGW	-0.351 ± 1.1
SRSVDLLSLSRYIYLESRYD	inactive
ILTHTEVCIPSVRTLSGCKG	inactive
